Consider two molecules from EP1787997A1 (Genetics Institute, LLC, dated 2007).

Assay [1] deals with T1, murine MU-1 Ig fusion protein (murine, UniProt Q9JHX3 20-236).
T1 construct: It includes the predicted leader 1-19, the transmembrane domain 237-253 and the cytoplasmic domain; Immobilized on a Biacore chip; not shown: Ig part of the fusion
The assay can be described thus: Biacore, MU-1 Ig fusion immobilized on chip. Background: In SPR one partner is held on a chip, and binding of the other changes the refractive index at the surface.

In assay [2] the target is T2, human MU-1 Ig fusion protein (human, UniProt Q9HBE5 20-235).
T2 construct: A soluble fusion would most likely hold only the extracellular part; Immobilized on a Biacore chip; not shown: Ig part of the fusion
The assay can be described thus: Biacore, MU-1 Ig fusion immobilized on chip.

T2 sequence (Q9HBE5 20-235): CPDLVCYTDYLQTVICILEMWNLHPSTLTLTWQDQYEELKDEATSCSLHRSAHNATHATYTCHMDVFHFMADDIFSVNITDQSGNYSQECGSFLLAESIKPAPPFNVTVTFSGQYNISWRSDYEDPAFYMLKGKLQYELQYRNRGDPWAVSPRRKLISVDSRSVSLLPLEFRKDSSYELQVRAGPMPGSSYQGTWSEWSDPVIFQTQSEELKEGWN

B1: mIL-7 (ligand, mouse, UniProt P10168 26-154, looked up)
chain: ECHIKDKEGKAYESVLMISIDELDKMTGTDSNCPNNEPNFFRKHVCDDTKEAAFLNRAARKLKQFLKMNISEEFNVHLLTVSQGTQTLVNCTSKEEKNVKEQKKNDACFLKRLLREIKTCWNKILKGSI
Take B1: the binding result in assay [1] and in assay [2] was “no binding” throughout.

B2: mIL-2 (ligand, mouse, UniProt P04351 21-169, looked up)
chain: APTSSSTSSSTAEAQQQQQQQQQQQQHLEQLLMDLQELLSRMENYRNLKLPRMLTFKFYLPKQATELKDLQCLEDELGPLRHVLDLTQSKSFQLEDAENFISNIRVTVVKLKGSDNTFECQFDDESATVVDFLRRWIAFCQSIISTSPQ
Regarding B2, the binding result in assay [1] and in assay [2] was “no binding” in each case.
